T1: Recombinant mouse ribonucleotide reductase R1 protein (mouse, UniProt P07742 1-792)
T1 construct: also called mouse R1 protein
T1 sequence (looked up): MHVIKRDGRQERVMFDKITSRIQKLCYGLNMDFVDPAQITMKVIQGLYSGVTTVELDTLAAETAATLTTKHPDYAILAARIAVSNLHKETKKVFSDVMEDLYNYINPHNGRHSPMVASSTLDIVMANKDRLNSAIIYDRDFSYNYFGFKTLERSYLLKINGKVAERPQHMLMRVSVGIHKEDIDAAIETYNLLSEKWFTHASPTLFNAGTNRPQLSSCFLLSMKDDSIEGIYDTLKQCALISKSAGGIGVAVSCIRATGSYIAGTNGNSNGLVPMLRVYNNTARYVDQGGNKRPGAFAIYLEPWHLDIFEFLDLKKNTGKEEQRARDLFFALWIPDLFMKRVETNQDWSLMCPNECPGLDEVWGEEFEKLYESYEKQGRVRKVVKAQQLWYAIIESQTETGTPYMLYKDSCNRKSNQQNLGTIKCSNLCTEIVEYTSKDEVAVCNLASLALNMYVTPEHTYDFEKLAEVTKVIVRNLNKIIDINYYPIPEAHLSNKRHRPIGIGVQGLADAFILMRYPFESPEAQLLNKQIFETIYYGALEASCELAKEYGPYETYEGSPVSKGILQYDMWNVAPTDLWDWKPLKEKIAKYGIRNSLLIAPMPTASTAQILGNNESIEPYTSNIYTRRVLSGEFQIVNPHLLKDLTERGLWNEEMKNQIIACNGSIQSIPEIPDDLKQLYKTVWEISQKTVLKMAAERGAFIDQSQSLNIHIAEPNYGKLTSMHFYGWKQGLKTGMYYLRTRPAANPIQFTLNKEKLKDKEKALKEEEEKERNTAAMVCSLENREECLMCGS

T2: mouse R1 protein (Mus musculus, UniProt P07742)
T2 construct: made in house; host or cells: E. coli BL21 (DE3)pLysS, pET3a
T2 sequence (P07742 1-792): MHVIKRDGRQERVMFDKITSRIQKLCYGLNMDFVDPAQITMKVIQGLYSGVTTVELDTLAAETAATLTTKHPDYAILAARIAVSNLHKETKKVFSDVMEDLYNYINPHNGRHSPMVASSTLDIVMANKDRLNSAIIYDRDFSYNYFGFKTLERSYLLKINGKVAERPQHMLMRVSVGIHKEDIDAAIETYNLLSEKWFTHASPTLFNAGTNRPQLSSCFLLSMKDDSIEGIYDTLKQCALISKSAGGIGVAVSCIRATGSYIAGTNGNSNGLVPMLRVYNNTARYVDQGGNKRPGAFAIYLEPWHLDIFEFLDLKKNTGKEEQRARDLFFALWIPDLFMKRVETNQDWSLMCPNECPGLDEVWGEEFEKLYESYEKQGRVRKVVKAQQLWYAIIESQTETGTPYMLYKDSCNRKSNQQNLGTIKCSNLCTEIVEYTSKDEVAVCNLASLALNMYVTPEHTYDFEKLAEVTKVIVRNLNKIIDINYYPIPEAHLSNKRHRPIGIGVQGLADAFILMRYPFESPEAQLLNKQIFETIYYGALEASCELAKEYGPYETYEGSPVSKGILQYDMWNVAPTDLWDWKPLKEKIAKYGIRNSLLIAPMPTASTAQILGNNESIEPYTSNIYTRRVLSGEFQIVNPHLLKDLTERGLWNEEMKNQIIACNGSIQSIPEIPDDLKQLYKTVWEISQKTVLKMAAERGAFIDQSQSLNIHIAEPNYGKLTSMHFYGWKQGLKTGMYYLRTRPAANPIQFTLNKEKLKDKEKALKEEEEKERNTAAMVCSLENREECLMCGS

T3: mouse RNR (Mus musculus, UniProt P07742)
T3 construct: made in house; host or cells: E. coli BL21 (DE3)pLysS, pET3a
T3 sequence (P07742 1-792): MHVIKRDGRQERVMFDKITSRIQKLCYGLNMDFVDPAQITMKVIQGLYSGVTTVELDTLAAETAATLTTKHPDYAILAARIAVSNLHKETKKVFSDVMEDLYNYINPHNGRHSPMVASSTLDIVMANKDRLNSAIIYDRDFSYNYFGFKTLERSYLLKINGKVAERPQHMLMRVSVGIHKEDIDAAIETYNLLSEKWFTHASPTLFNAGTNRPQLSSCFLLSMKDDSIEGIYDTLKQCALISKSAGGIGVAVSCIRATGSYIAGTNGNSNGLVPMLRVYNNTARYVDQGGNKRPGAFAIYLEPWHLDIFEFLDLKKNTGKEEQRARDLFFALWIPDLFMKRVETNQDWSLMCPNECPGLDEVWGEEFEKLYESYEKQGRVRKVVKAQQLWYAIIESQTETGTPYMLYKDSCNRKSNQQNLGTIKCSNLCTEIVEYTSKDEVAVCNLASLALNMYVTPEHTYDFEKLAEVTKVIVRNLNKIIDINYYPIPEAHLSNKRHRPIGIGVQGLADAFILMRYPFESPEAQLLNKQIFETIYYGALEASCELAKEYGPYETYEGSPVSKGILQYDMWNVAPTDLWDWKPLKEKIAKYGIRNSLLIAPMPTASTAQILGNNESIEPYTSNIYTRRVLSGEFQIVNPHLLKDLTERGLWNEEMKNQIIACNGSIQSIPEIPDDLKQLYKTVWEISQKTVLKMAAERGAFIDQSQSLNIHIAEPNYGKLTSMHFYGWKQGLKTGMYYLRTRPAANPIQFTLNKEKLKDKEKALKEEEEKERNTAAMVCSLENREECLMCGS


How the values were obtained:
[1] = molecular target: T1, Recombinant mouse ribonucleotide …; experiment: BIAcore biosensor, mouse R1 protein alone at 0.1 mg/ml over immobilized Sml1p, prolonged injection, bulk effect not subtracted
[2] = molecular target: T4, bovine serum albumin (bovine, UniProt P02769 25-607); experiment: BIAcore, immobilized Sml1p
T4 construct: Control; also called BSA

[3] = molecular target: T2, mouse R1 protein; experiment: BIAcore biosensor analysis, immobilized Sml1p and mouse R1 protein; type: binding; conditions: not quantified
Method: FIG. 14 Sensorgram showing the interaction between immobilized Sml1p and the mouse R1 protein. […] Curve 3 showes the response with mouse R1 protein alone at 0.1 mg/ml passed over immobilized Sml1p. Note that the injection time for this curve is prolonged from 6 min to 14 min.
BIAcore biosensor analysis. The interaction between Sml1p and either yeast Rnr1p or mouse R1 protein was studied by biosensor analysis using the BIAcore method (Biacore AB). The Sml1 protein was prepared in 10 mM sodium acetate, pH 5.2, at a concentration of 0.44 mg/ml; it was then immobilized on the dextran layer of the sensor chip as described previously for the mouse R2 protein (17). The ligand proteins were equilibrated with running buffer (10 mM Hepes-KOH, pH 7.4, 200 mM potassium acetate, 1 mM EDTA, 5 mM magnesium acetate and 0.05% Surfactant P20 (BIAcore). The interactions were studied at a constant temperature of 22° C. and a constant flow of 5 μl/min. Kinetics for the interaction of Sml1p with yeast Rnr1p was determined by allowing the immobilized Sml1p to interact with increasing concentrations of Rnr1p (18). The resonance unit (RU) is proportional to the mass, and 1 RU corresponds to a surface concentration of 1 pg of protein/mm^2 of the 100 nm thick dextran layer (19).
Kinetic studies of the interaction between the mouse RNR R1 protein and the Sml1 protein using a biosensor technique. […]

[4] = molecular target: T3, mouse RNR; experiment: in vitro mouse ribonucleotide reductase CDP assay; type: biochemical; conditions: 300 fold molar excess of Sml1p (36 μg), 1 μg R1, increasing R2; dependent on R1 to R2 ratio
Method: FIG. 13 Inhibition of mouse RNR by the Sml1p. A series of tubes containing mouse RNR (1 μg of R1 protein and the indicated amounts of R2 protein) were incubated at 37° C. for 30 minutes as described in FIG. 9 in the absence (ã) or in the presence of 36 μg of Sml1p (o).
Inhibition of mouse ribonucleotide reductase by the Sml1protein. The effects of Sml1 protein on pure recombinant mouse ribonucleotide reductase were tested in a CDP assay in the presence of ATP as a positive effector (FIG. 13). In the figure, RNR activity in the presence of a fixed amount of R1 protein, and in the presence or absence of a 300 fold molar excess of Sml1p, are plotted against increasing concentrations of the R2 protein.

T4 sequence (P02769 25-607 limits assumed): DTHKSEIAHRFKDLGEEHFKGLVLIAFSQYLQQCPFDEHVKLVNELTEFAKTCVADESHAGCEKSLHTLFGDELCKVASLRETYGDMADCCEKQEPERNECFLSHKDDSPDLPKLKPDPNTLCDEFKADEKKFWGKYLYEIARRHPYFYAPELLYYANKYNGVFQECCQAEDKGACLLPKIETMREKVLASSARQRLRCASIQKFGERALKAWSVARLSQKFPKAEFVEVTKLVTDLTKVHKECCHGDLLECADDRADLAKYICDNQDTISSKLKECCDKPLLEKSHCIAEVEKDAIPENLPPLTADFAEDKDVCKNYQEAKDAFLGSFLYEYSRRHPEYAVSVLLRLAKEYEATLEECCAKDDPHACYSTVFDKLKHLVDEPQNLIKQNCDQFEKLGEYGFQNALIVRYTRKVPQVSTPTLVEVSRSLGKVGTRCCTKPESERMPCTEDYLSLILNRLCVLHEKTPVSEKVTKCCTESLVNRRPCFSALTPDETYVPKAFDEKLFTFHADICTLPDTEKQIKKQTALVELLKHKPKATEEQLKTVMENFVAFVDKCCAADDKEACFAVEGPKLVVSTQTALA

Row | Molecule | binding result [1] | binding result [2] | binding to mouse R1 protein [3] | inhibition of mouse RNR compared with yeast RNR [4]
1 | Recombinant yeast Sml1 protein (other, Immobilized on the BIAcore chip in the biosensor experiments; also called YML058W product) MQNSQDYFYAQNRCQQQQAPSTLRTVTMAEFRRVPLPPMAEVPMLSTQNSMGSSASASASSLEMWEKDLEERLNSIDHDMNNNKFGSGELKSMFNQGKVEEMDF | binds | no binding (tested: 0.1 mg/ml) | – | –
2 | Sml1p: 104 amino acid yeast protein encoded by YML058w (SML1) that binds Rnr1 and inhibits ribonucleotide reductase; recombinant, expressed in E. coli (protein) MQNSQDYFYAQNRCQQQQAPSTLRTVTMAEFRRVPLPPMAEVPMLSTQNSMGSSASASASSLEMWEKDLEERLNSIDHDMNNNKFGSGELKSMFNQGKVEEMDF | – | – | high affinity | less pronounced

Source: US7125658B2, “Small protein that interacts with a ribonucleotide reductase subunit and uses thereof” (The Trustees of Columbia University in the City of New York, priority 1998, dated 2006)
